The results in this text go back to a protein production outcome set (Wang et al. 2014).

The data set in a line: label from the status in PepcDB records.
For the sequence “MIGRHHPILAWAAVVAIGGGVIVLGGIGLPGAGDWLSDWTRAITSRQAGFHRELGQAVRDLAGEGGGAAGVGLLIASLGYGVFHALGPGHGKAVIGAYAATTATGFRRAALLSLAAALIQATTAVVLVDGAFLVMRGGAHWANRTAERWLEPASYAAILGLGLYLGGRGLLAIVRAGRPSPGGDHRPTHPGQARDEEACAHCGHAHGPTADQVAKATEWRSAAMIALAVGIRPCSGAILVLVVANGLGLWAAGILAAYVMALGTAATVALLAVGARASRLPIAGLARRLPLSPALLGGLAGTLAGLILVVLAGLLLRASLLAPVHPLLG”, the protein production entry is recorded as “failed”.

As to “MFDRLKNGEKIAPIVKEVESQITEVHKRADEVIESNQFRVLESFGKHKISDSHFIPTTGYGYDDIGRDTLEKVYADVFGAEAGLVRPQIISGTHAISTALFGILRPGDELLYITGKPYDTLEEIVGVRGKGVGSFKEYNIGYNAVPLTEGGLVDFEAVAAAIHSNTKMIGIQRSKGYATRPSFTISQIKEMIAFVKEIKPDVVVFVDNCYGEFIEEQEPCHVGADLMAGSLIKNPGGGIVKTGGYIVGKEQYVEACAYRLTSPGIGAEAGASLYSLQEMYQGFFLAPHVAGQALKGAIFTAAFLEKLGMNTSPAWNAPRTDLIQSVQFDDKDRMIAFCQAIQYASPINSHFTPYANYMPGYEDDVIMAAGTFIQGASIELSADGPIRPPYVAYVQGGLTYSHVKIAICSAIDELIEKNLLTISLEHHHHHH”, the protein production result was “not failed”.

“TQKKVEVETLEQKIIRADRELAELLEIDEGDEVNYRVVYLRANGEIYAKAISFTPLKRLENSFREDLMRADIPIGKIMRKHNIEARREIRWSRVEEADLALAKELGIADRRVISRNYNIIHRGKVLINITEFFPMERFR”: the protein production entry is listed as “failed”.

In the case of “LDVGCNQGGFLRKLYDTTPFKEGVGIDLARLSLEKAETLKGERPLTYYLTDKPQETNRTFDTAVSTSVLYLIEDIPQHAQDLKEVLKPGGVYYASFADLTNNPSRQFMDDTINQYGATPSQNHSLKHIVDSFVDAGFEVAVMKEPVPDVIDLTHYSDFYLSPNDYLQTLYEESFLIKASVKEGIGK”, the protein production entry is given as “failed”.

In the case of “MDLLLKAALGAAVVVILAALAKTRNYYIAGLVPLFPTFALIAHYIVGKGRSLDDLKTTILFGMWSIIPYFVYLATLYVMVDRLRLEASLAVAAVAWLIAATILVSVWVRLHA”, the protein production result was “failed”.

For the sequence “MISLKNFGLLFWKRFSENKLNQVAGALTYSTMLAMVPLVMVIFSIFSAFPVFNEVTGELKEMIFTNFAPSASDMVGEYIDQFVSNSKKMSAVGIVSLIAVALMLINNIDRTLNSIWHNSQSRSPLSSFAIYWMILTLGPLIIGVSIGISSYIKIMFEQSEHLSLGLKLLSFVPFLFTWFIFTLIYTVVPNKKVKIKHSAYGAFLAAIFFTLGKQAFTWYIVTFPSYQLIYGAMATLPIMLLWIQISWLVVLVGAQLASTLDEIGEQIEQ”, the protein production result is reported as “failed”.

“MTVAPFDTAKLDRLMEEAGIDVIAATSKHNTQYLMGGYKFIFFAAMDAIGHSRYLPMVIYEKGAPDHSAYVGNRMEGAEHQNNPFWTPAVHTATWGTQDAAGLAVEHLKKIGKASGRIGIEPAFLPSDARDLLASRLDGARFVDATHVLERLRAVKTADELAKLRRASELITDSMLATIAAARAGSTKLEIIEQLRREETNRGLHFEYCLLTLGASHNRAGSPQAWAEGEILSIDSGGNYHGYIGDLCRMGVLGEPDAELEDLLAEVERIQQAAFAKVRAGVLGSEMIVAAEAELKASPSAAFTDFFCHGMGLITHEAPFLMTNHPVAYEGIDADKPLEAGNVISVETTMLHPKRGFIKLEDTLAITDKGYEMFGDRGRGLEHHHHHH”: the protein production entry was “failed”.

For “MERVQRLRLTFGKTGEMTLLSHLDLLRLFERAVRRAHLPIAFSGGFHPSPRISTASALPLGVTSYGEIVDLEFYREVDAQTVLEQLRQQLPQEIPLYGCEVVPLSEPAASQALRAATYELLIRTPEPLERETWEQWLETLRATPEILYELTTKSGKTLEHHHHHH”, the protein production result is recorded as “failed”.

Turning to “MQRGSRQLYLGDPATDKLQVPEMPMQVLTAFVPGMEVAISAISSYLSTKKMSEGGAGPLLQKRRPNTRKLWSEGRVQPRPFCVLSGLAPPRSRPGPWGPFKAASWPAGTCFAPSDAAEVAASPLRRRGDCWEGRRDGGSETSSRSRIRVKRDRSKSQSRTKAEGAGRRGPVGPGDPVRPDGEKRLQARRPPAPPLASTDRKTMATMVLPREEKLSQDEIVLGTKAVIQGLETLRGEHRALLAPLASHEAGEAEPGSQERCLLLRRSLEAIELGLGEAQVILALSSHLGAVESEKQKLRAQVRRLVQENQWLREELAGTQQKLQRSEQAVAQLEEEKQHLLFMSQIRKLDEDASPNEEKGDVPKDSLDDLFPNEDEQSPAPSPGGGDVAAQHGGYEIPARLRTLHNLVIQYASQGRYEVAVPLCKQALEDLEKTSGHDHPDVATMLNILALVYRDQNKYKDAAHLLNDALAIREKTLGKDHPAVAATLNNLAVLYGKRGKYKEAEPLCKRALEIREKVLGKFHPDVAKQLSNLALLCQNQGKAEEVEYYYRRALEIYATRLGPDDPNVAKTKNNLASCYLKQGKYQDAETLYKEILTRAHEKEFGSVNGENKPIWMHAEEREESKDKRRDSAPYGEYGSWYKACKVDSPTVNTTLRSLGALYRRQGKLEAAHTLEDCASRSRKQGLDPASQTKVVELLKDGSGGRGDRRGSRDVAGGAGPRSESDLEESGPAAEWSGDGSGSLRRSGSFGKLRDALRRSSEMLVRKLQGGGPQEPPNSRMKRASSLNFLNKSVEEPVQPGGTGLSDSRTLSSSSMDLSRRSSLVG”, the protein production result is “failed”.

As for “MNEFEDLLNSVSEVNPGDVVTAEVLTVDNGQANVVIEGTGVEGVLTLRELTNDRDADINDFVKAGDTVEVLVLRQVVGKDTDTVTFLVSKKRLEARKAWDKLVGREGEVVTVKGTRAVKGGLSVEFEGLRGFIPASMIDTRFVRNTEKFVGQEFDAKIKEVDAAENRFILSRREVIEEAAKEARAEVFSKISEGAVVTGTVARLTSFGAFIDLGGVDGLVHVTELSHERNVSPKSVVSVGEEVEVKVLSIDEEAGRVSLSLKATTPGPWDGVEQKLAQGDVVEGKVKRLTDFGAFVEVLPGIDGLVHISQISHKRVENPKDVLSVGQEVTVKVLEVNAADERVSLSIKALEERPAQAEGDNKEEKRQSRPRRPKRESRRDYELPETQTGFSMADLFGDIEL”, the protein production result is reported as “failed”.

Consider “MKNFVVKTIANAGALAVAVWLLDKITLTGDSTGKKIGTLIVVALVFGLVNFLVKPIVKVLTFPLFILTLGLITLVVNALMLLLTSWLADKLDLSFHVEGFWTAVVGGLIISVVSWALNVVLPDDKD”, for which the protein production entry was “failed”.

“MASPLYPSVLNNPLSSIVVTRDEFNAFHTIDRTLFSRLVFNLNRDVDQSFLAMCFLLFLEQSSYARDIIAYLVSLPNAFVDAVANEIGVCINLLYNVEFASTFFAADNDDNSMIPLLLRITGGKFTLRLINQQRKNFCAGVTKSWTDVCTRAFSDLCETAHRINREKQLALEREKFIEDMKKLRLSLQQEKSNRLSVQQVKIASPPPPRPHPPVEDETEKALREKETMEVKEKEGVLAADDRTVFLTFSKGYPISEAEVRVYFTRRFGEVIEAVEMQEVEANEQPLFAKMVMKLQCASMMDEIVSARFRNKFTIDGKHVWARKYVRKNPYPASSSTHF”: the protein production entry is listed as “failed”.

In the case of “MTIISTIFFFSFSVFFVIRYLKLKKIYDLLMIFVGLYAGLINMKLMSLSTTVSYVLDTIVIVLVIISVILFLKDKKNY”, the protein production result is listed as “failed”.

As for “MLSYCPNIFYLIMTTLCLVIQTGCSPAQDHVHSQLHSSISVTDRDGNTVQLNQPARRIVCLFEASVDDLYMLGAGKSIIGIPAKIYTSSDLYRAYSILDRRIYEKKIATPSNWEASTNIESVVALQPDLVIVSAGQKDVIQILNRMHIPVYSVLSENLQQTRKELLDLGKLTGKSQRASELVEFIDHEIQAIQQRNHTQSDQKTIYYGWSGGRIFSTSGRDSMPNTVMTLAGAHNVVNTAIDQPNVNPEKLIEWNPDVILLWNTNPKQIYQRSELKTLTAVKQQHVFNLSPSFLFNPHTPKILLAANQLNHWVYPAPHSDQAATQDKLRILTQFYGKTAAEQLIQYANDVTKE”, the protein production result is reported as “failed”.

Consider “MREPMTWRTSPGQTADASRHPAIPSRSPLASRALSFLGALSLLTFAATPVLAESTPTAAPPQFAVESPKAASSLLLSVAHAGKRLVAVGDRGHILLSDDDGKTWTQAKVPTRQLLTSVFFVNERKGWAVGHDAQILVSDDAGSTWARQFEDLGREAPLLDIWFADEQHGLAVGAYGALLETRDGGQHWEDVSERLDNEDQFHLNAIAAVKDNGLLVVGEAGSLFRSKDWGATWEKLEGPYEGSLFGAIGTADAGGVLVYGLRGHLFRSADFGDSWEEIPLKAASGDLEFGLSDGALLADGRIVVVGHGGSVLESTDGGRSFSVFNRPDRLSLAGVSATGDGHLILVGQGGVHLAAANGAALEQQQ”, for which the protein production result is recorded as “failed”.

Regarding “IGPSSSHTMGPMTAANVFRDHVDQLVSQTPDDLNYRVYCVLKGSLAFTGRGHATDRAVALGLHGHSPVSLAGEDVNALTAKLWATDTLQLTSGREIGFNPEDDIVFDKSDPLPQHPNGMIFYLLDEEGKKILSETFFSIGGGFICTLAEINQ”, the protein production entry was “not failed”.

On to “MKVLKPGLLTTVQDIGRTGYQKYGVLASGAMDTVSLRIANLLIGNGENEAGLEITMMGPGPSFHFSKQTLIAVTGADFTLRINDEEAPLWKPVLIKENSTVSFGPCKLGSRAYLAAAGGIEVPAVMESKSTYVRGSIGGLHGRALQKEDELNIGEMSALSQTILSRLSSQLAHTVIGSTDVVSQPWEISVIEDESRHSSAGGISICLLHSRIKNAFSEEAFRVTPQSDRMGYRLKGEPLDLTAPLEMVSAAVSFGAAQMPPAGKPYYPCLQDRQDDWPAIRGIAHIISADLPIVSQIMPGEHVQFEPVSLQEAEALAVEREQHIKELKTRMKMEWLT”, for which the protein production result is “not failed”.

Regarding “MAGAAHRLMEARMRRYDNKFARISDIDINQPESWRGRIFLTFDIDWAADFVLQDTIDLIEGAGVCATWFATHSTPLLENIRRNPLFELGVHPNFNPLLAGAHAEGVQEILDRTLELAPGCVSVRSHSLVQATSILNMFGERRLRYDCNILVPWDAGIVLQPWRHWTGDMVRVPYLWEDDVACLYDWEFDSTFDYWYQPDGINVLDFHPIHVYMNTESLRRYEDSREVHRNPVDLIRWRNTSAGSRTFLQSLLARNI”, the protein production entry is “not failed”.

Consider “MYEAHFGLKQLPFTLTPNTSLFHGLSPHYEAIHTVLSAISMGEGIIKVTGEVGTGKTLVCRMLINELPSNVELLYLPNPVMNGHELRQALAKELWLDQSGDDIALIDRIHEKIIDLHAEGKLVVVFIDEAQALSDEALETLRLFGNLETDYKKLLQIVLFGQPELDERLQQHNLRQLRQRITFSALLRALNMNETVAYIRYRIAESGCENNPFSLVQMKAIWKATNGIPRLINQVCHKSLLIAFSEQVNNVPSKAVFNAIIDTADTVKPKHYFPTFWGWRVSLEHHHHHH”, for which the protein production entry was “not failed”.

As for “MISEIIEFLESNFFYLHPGYTPLNTVVFGIVLGIAVLIILRMFRWLKKDPGELLVPLLPFIFLGSGARALVDNGIYPLTHLLVTPGIYILVGLTTIATLIAAVKLEETRGWDYRKLIFATGSVLAAPNLISIRHIDPVPFLSVLGVFSVFSAAFYALSLRWEFLRGRMNLPVIYAHLFDASSTYVAVDWYGYIEQHVLPSALTGLTGTAMVMFPLKMAVILTALYAIDRYVESDMDSEALKLVIFILGLAPGLRNFLSLSMAV”, the protein production result is reported as “failed”.

Take “MNKSKIAGIMAKLNAVDNQLVEDVAYVRSRDFPNQRFDHQQGYKGSYGNGQTSYSQNSQFQQPLQNNNSFSFTRNFDLASYQDLTAPIPRWNESSLTTSWHAASMESGYEFMKDDESDEFDVAKAVTKQNRAGSTLISRVARHTLIVLTDTTWVSIHNNTNLRKCRRLTEQNRPRLTEQD”: the protein production result is reported as “failed”.

Take “SWSDLFRKCTTDEEQEMLQFLIDNKDSEILRAFVSERSILLHEEYLKWESYMTRRAKFHRLAADFAMFLSILTSLIVIFCLVYSMYQLFKTPDEHSAYDPSTRPKPKTQEVKTLKIRTE”: the protein production result is on record as “not failed”.
